The results in this text go back to US20240026407A1, “MODIFICATION OF SAPONINS” (GLAXOSMITHKLINE BIOLOGICALS SA, priority 2020, published 2024).

Holding throughout (assay type): biochemical, Quillaja saponaria
Assay [1] in a line: Experiment 5-1: screening of additional glucosidases for deglycosylation with purified QS-18 (0.04 mg/ml) at pH 7.5 and 30 deg C. Conditions: pH 7.5, 30 degrees C, 18 hours, LCMS/MS. The protocol: The 94 additional genes, together with positive control (DNA encoding SEQ ID No. 262) and negative control, were transformed, expressed, lysed and reacted in the same manner as described above for Experiment 4-1, except the reaction was incubated at 30 degrees C. for 18 hours.
Samples were analysed by LCMS/MS according to the procedure in Experiment 4-1.

Assay [2] is described as follows: Experiment 5-3: screening of additional glucosidases for deglycosylation with QS-18 in treated bark extract (80%) at pH 6 and 35 deg C. The note with it: TBE 80% (QS-21 approx. 4 g/L), pH 6, 35 deg C; UV HPLC. The protocol: Experiment 5-1 was repeated, replacing CBE with Treated Bark Extract (TBE) at pH 6. TBE was prepared from CBE by PVPP treatment and concentration, to provide TBE with a QS-21 concentration of approximately 4 g/L. TBE was adjusted to pH 6 by dropwise addition of 2M NaOH with stirring.

A short description of assay [3]: Experiment 5-2: screening of additional glucosidases for deglycosylation with QS-18 in crude bark extract (80%) at pH 6 and 35 deg C. Conditions: CBE 80%, pH 6, 35 deg C, 18 hours; UV HPLC. The essentials: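 Deglycosylation of QS-18 was monitored by UV HPLC after MeCN/AcOH quench with hexanophenone. The reaction ran 18 hours at 35 deg C, shaking, combining clarified pH 6 lysate with crude bark extract neutralised to pH 6 by NaOH.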

B1: 837 (protein, listed as Bifidobacterium magnum)
chain: MTDNLTIGVTEANELSVKEQASLTSGQDAWHLQGIPSKGIPGYMITDGPHGLRKTTAGNGDEMNLDRSVPATCFPPAAGLSSSWNPQLVREVGEAMGEECVQEKVAVILGPGVNIKRNPLGGRNFEYWSEDPYLAGHEAAGIVDGVQSKGVGASLKHFAVNNQETDRFRVSALVSERALREIYLPAFEYIVKHSRPWTVMCSYNKINGVYSSENHWLLTDVLRKEWGFDGIVMSDWGADHNRVAALNAGLNLEMPPSGTDEQVVQGVENGTLKREQLETMAQAMIDLAHKAEDAMNQDGYRYNVDDHNNTARRAARESMVLLKNEEHVLPVKEQDHIAVIGEFARTPRYQGSGSSRINPTRLTSFLDAAQERGVSLTFAPGYTLDQSPADTQLEQEAVDAAAQADTVLMFMGLPDYDESEGFDRTTLAMPAKQLELLGKVTAANKRVVVILSNGSAVTMTPWNESVPAILETWLLGQAGGVALADIVFGDVSPSGRLAQTIPVELTDDPSTINWPGEEHHVNYGEGVFVGYRYYDTFHKPVAYPFGFGLGYADFAIDEVQVRATGVHAAQVRAKVTNLSQDTAASHVVQVYVRPVEPKVPGEASEHVARPVHELKGFAKVYLEPGQSDTVTIDLDERAFAYWSEEFHDWRIEGGEYGIEVGSSSRDIAATVPVTIAGDGKRKPLTVWNTLDEWRKDPVGKAVAGELMAKLREQGADFTGGDTSTEIFMNTLPINSLTALMGPQGNQVEDFLLGEYARRTQ
Take B1: the “Experiment 5-1 % conv” value in assay [1] was 7.6%. Also, the “Experiment 5-3 % conv” value in assay [2] is under 0.5%. Also, the “Experiment 5-2 % conv” value in assay [3] is recorded as under 0.5%.

B2: 883 (protein, listed as Salinispira pacifica)
chain: MKSIQEIRSSLTLEEKASLCSGKDFWNLKSFESKGVPAIMVADGPHGLRKQMESSADHIGIGGSVPATCFPTASAMASSWDTQLLNEVGNALGEECRQEHVAVLLGPGVNIKRSPLCGRNFEYFSEDPYLGGKLAASLIRGVQSMGVGTSLKHFAANNQERRRMIIDAVVDERALRELYLAGFETAVKESSPKTVMCAYNKLNGAFCSENHRLLSEILKEEWGFEGFVVTDWGAVNDRVAGLNAGLDLEMPASGGYNDNLMVEAVQNGTLSENSLNDAVDRILKVVLETHTALQEEFTYDAAAHHRLAQKAESESAVLLKNDKLFPLNSEDFRTEEKHGSQEHKSPKLALIGSFAKEPRYQGSGSSLINPRQLDSAYDAISRELGGDMQLLYAPGYDPADEEPDSRLIQEAVNTAAAADTVIVFAGLPEISESEGFDREHLSMPRSHNDLISAVAQVNPRTAVVLSNGSPVTMPWLDSVPAVLESYLGGQAWGSAISDIIFGRANPSGKLAETFPLSLQDVPSSAQFPGGSASVVYTDSLYVGYRYFSGTGKPVLFPFGHGLSYTRFSYDGLKITGRGTGRTVQCRITNTGSRDGKEVIQLYVHSESSSVFRPEQELKGFSKVSLAPGEEKTVEFRLDDRSFAYWDPGAGDWMVESGNYEIRIAASSADIRLRETIRIDSTQTPSQWAADLRNRIPEFFSPAPELFHDISPESPFRKLLGRPIPPPHWDTREGFTRNSTLEETTRTFIGRILYKAVMREGSRMMSQDADEKSIAMMQAVIREMPLKNLGMMGGDKISMHTVDSLILLLNGKIIRGLGSLLRRK
With B2, the “Experiment 5-1 % conv” value in assay [1] is given as 7.0%. Besides, the “Experiment 5-3 % conv” value in assay [2] is listed as under 0.5%. The “Experiment 5-2 % conv” value in assay [3] was under 0.5%.
